According to PMC12304082:

Target: MtrC_(DI,II,memb), lipid-anchored truncated MtrC comprised only of domains I and II (Shewanella oneidensis MR-1) (UniProt Q8EG34)

“soluble OmcA (from UniProt Q8EG33 1-735) (natural protein)” showed a rate of reduction of 700 nM soluble OmcA by whole S. oneidensis ΔmtrC/omcA cells producing MtrC (DI,II)AB, against S. oneidensis MR-1 (fold lower rate) of 4.
